Tests used:
[1] = biological target: RBBP4 Glu126Ala/Asn128Ala/Glu179Ala (UniProt Q09028); experiment: ITC; AEBP2 ZF1–3 titrated into RBBP4; one-site binding model, Origin 7
[2] = biological target: RBBP4, full-length, wild type (UniProt Q09028); experiment: as above
Chain of RBBP4, full-length, wild type (Q09028 whole entry): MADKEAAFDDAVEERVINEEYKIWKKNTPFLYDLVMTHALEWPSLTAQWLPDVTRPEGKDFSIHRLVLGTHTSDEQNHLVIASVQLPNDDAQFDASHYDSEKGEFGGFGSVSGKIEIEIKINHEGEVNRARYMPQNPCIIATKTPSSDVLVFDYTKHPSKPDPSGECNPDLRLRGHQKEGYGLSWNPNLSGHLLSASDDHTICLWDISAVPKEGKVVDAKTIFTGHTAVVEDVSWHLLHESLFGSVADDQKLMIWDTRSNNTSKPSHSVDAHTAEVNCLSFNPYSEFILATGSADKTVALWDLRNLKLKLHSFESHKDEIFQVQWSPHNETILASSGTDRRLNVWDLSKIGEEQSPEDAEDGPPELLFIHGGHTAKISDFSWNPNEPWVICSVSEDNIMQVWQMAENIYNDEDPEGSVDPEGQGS

Chain of RBBP4 Glu126Ala/Asn128Ala/Glu179Ala (Q09028 whole entry E126A/N128A/E179A): as the sequence (Q09028 whole entry) above, with E126A, N128A, E179A counted along it

Work on “AEBP2 ZF1–3 (three zinc fingers, residues Asn258–Gln357) (domain or fragment)” yielded a Kd [1] of 16 µM and a Kd [2] of 10.1 µM.

Reference: publication PMC6053351
